By Kd is commonly meant the free concentration of one partner at which half of the binding sites on the other are occupied at equilibrium, for simple one-to-one binding. Read a high Kd as lower affinity.

In data set [1] the target is T1, IL-23 (p19/p40 heterodimer) (Homo sapiens, UniProt P29460;Q9NPF7 P29460:23-328,Q9NPF7:20-189). The experiment in a line: FP. The settings on record: label: 5'-32P.
Data set [2] addresses T1, IL-23 (p19/p40 heterodimer). The experiment in a line: filter; dot blot nitrocellulose; Dulbecco's PBS with Ca2+ and Mg2+, 0.1 mg/mL BSA, room temp 30 min. The settings on record: label: 5'-32P. On the procedure:
Aptamer binding affinity determination. Trace 5′-³²P-labeled aptamers were combined with protein (IL-23 or IL-12) at various concentrations and incubated at room temperature for 30 minutes in Dulbecco's PBS (PBS plus Ca²⁺, Mg²⁺) plus 0.1 mg/mL BSA. Each titration curve was tested in duplicate. The reactions were then added to a dot blot apparatus (Minifold-1 Dot Blot, Acrylic, Schleicher and Schuell, Keene, N.H.), assembled (from top to bottom) with Protran nitrocellulose (Schleicher and Schuell, Keene, N.H.), Hybond-P nylon (Amersham Biosciences, Piscataway, N.J.) and GB002 gel blot paper (Schleicher and Schuell, Keene, NH). Aptamers bound to protein are retained on the nitrocellulose filter, whereas the non-protein bound RNA is captured on the nylon filter. The extent of aptamer capture on each filter was quantitated using a Phosphoimager (Molecular Dynamics). Equilibrium dissociation constants (KD) were calculated using the equation: […]
FIGS. 3 and 4 show the comparison of the aptamer binding curves (in duplicate) to cynomolgus IL-23, cynomolgus IL-12, and human IL-23.

T1 sequence (P29460 23-328, chain 1 of 2): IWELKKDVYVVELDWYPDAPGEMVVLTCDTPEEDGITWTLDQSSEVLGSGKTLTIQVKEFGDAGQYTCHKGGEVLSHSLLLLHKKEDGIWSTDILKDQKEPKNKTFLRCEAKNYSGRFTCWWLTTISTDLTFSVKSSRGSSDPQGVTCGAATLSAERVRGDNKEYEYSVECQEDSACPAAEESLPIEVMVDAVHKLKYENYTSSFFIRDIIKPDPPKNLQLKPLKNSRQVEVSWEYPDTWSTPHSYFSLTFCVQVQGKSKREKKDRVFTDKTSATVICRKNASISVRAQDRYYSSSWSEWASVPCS
T1 sequence (Q9NPF7 20-189, chain 2 of 2): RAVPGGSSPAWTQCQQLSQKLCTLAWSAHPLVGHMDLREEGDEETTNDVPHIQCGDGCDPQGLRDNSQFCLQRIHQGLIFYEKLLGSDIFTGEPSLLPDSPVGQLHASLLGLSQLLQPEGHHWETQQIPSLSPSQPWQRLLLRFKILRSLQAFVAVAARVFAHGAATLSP

B1: ARC1623 (mixed)
RNA: ACAGGCAAGUAAUUGGGGAGUGCGGGCGGGGUGU
modifications: 2'-OMe at all C and all U and at G16, G17, G24, G25, G30, G31; all other nucleotides 2'-deoxy (all A deoxy); PS after positions 17, 18, 19, 21; 3' inverted dT
For B1, the dissociation constant Kd in data set [1] was determined as 0.25 nM.

B2: ARC1626 (mixed)
RNA: B1 RNA
modifications: 2'-OMe at all C and all U and at G16, G17, G24, G25, G30, G31; all other nucleotides 2'-deoxy (all A deoxy); PS after positions 2, 3, 4, 6, 7, 8, 10, 11, 14, 17, 18, 19, 21, 25, 27, 28, 32; 3' inverted dT
B2: binding in data set [2] was characterised by a dissociation constant (Kd) of 0.15 nM.

Source of the values: patent US20090142855, “Polynucleotides and Polypeptides of the IL-12 Family of Cytokines” (published 2009).
